Laboratory results reported in the DeepSol protein solubility set.

Assay: soluble on expression in E. coli; label from the status in PepcDB or PDB records

Q: For “MAHHHHHHMLKCARYLFGPPNTKRKCAPLFSARNFSILERYIRAKPLSHELKIEEAKNEGIKGEGDRNGEERKASEKSASTYYPPNITRGVIPKSAYMNTWKIPEQPANPKFLKVALIGAPNAGKSSLLNSILNKTISAVSPKINTTRQDIKGIYTKDNVQLIFIDSPGIVPSHKKKKFCKELVSYAWKGYEEADLVLFIADTVKRPTHDVLNIIRMLAPKKVEAYSSGSEDEGETQHYMFNHPSEDHDQEEHFEWNGKPQSDLNSSSTNEELYEKSQKNVQKFVEYFSTAMEKEAKYSDKSVKENLLKNRKKIIESYSNDVDGKDSPNGEGEQQKLVPPVILVLNKVDLCTHNKWANARAKEFMSNGNFDNIFFISAKYNKGVEELLDYIAKFKAKNQFWVYPKDSNTTLTKVQVVEQLINTYLYCWFNKDVPYRVKHHMLSWCVNLNNSLIIEYQIVVKSPKVAKMICGVHNKLIINMRRNVSYKLTQLWGQNVYVHIHVKSVSA”, which “soluble on expression in E. coli” value is on record?
A: Its value is “not soluble”.

Q: For “SNAMTQQDFRTKVDNTVFGVRATALIVQNHKLLVTKDKGKYYTIGGAIQVNESTEDAVVREVKEELGVKAQAGQLAFVVENRFEVDGVSYHNIEFHYLVDLLEDAPLTMQEDEKRQPCEWIDLDKLQNIQLVPVFLKTALPDWEGQLRHIHLEE”, which “soluble on expression in E. coli” value is on record?
A: Its value is “soluble”.

Q: With “MGSDKIHHHHHHMLNMNFDEQVFINTQEQPWVASPKAGVWRKPLAREDAERGHATSLVKFDPGASFTEHDHPLGEEILVLSGTFSDHTGDYHAGSYFRNPEGFRHAPFSKDGCILLVKLHQFQSGDNEHVVIDTANKSWSPGMGNLMVMPLHSFEGESTALVKWPKDERFQPHKHFGGEEIFVISGEFIDEHGRYPEGSWIRSPHLSEHFPYVEQETIILVKVGHL” as the sequence, how does the “soluble on expression in E. coli” value read?
A: Its value is “not soluble”.

Q: For “MGSDKIHHHHHHMIYSVDKKDIEIGISACLIGEKVRFDASNKPSHFCIKEFSEHVSYKSFCPEVAVGLPIPRPTIRQIKRDDVIHVSQKDGSGDVTEALKAYGKKVASMTKSLSGYIFCAKSPSCGMERVKIYSPEGNSLPSKGIGAFAKEIMDANPLLPCEENGRLNDPLLRENFVARVFAYKHWQTIVESGLTKHKLTTFHSHYKYTVMSHDLIAYKELGQLLARADLPLDEVAAQYILGLMTALKIIATRKKHANTLAHIQGYFSKHLQANERQELCEQIDAYREGLIPLMAPLTLIKHYLLNHPKDYLTKQAYLSPYPDKLRLRYAY”, which “soluble on expression in E. coli” value is on record?
A: The value was “not soluble”.

Q: With “MGSDKIHHHHHHMSIIMERQRGNQLLRIISEYMTNLKEKGQKLAKDNTMENLVNFTPRYNLIKSYLDDVERALDRSGLCYVKITFITLSKLLTGWSPIYFITEVPLAWDMILDTPYIAGSEIKGIVKNYFKEVTSNDKVESCLYGDEGKMGKVIFFNAYPIDGKNVLTYDIITPHYNGAKDEYNVKPIPIKFLAINKGITFKTYLAFDNKELNECGKDSLYLLLKTMIFSMRIGWGRKVTRGYGSLDIKEMDVKCHGE” as the sequence, how does the “soluble on expression in E. coli” value read?
A: The value was “not soluble”.

Q: For “MSLTIAVYGLGKMGLPLAAVFADHGANVIGVDINERVVEMVNKGENHVKEEPGLDELVRRNVEEGRLRATTDGVWAAKSADVMIILVPTLADDRGNLKLEPVYDVANKIAKGLEKGDIVITEATMPPGTTESLIPILEKSGLKLGEFGLAHAPERTMTGTAIRDITGQYPKIVGASDERTLEAVIGLYETINRKGVIPMSSIKAAEAVKVFEGVYRDVNIALANELALWCEEHGLDALEIFNAANTQPYCHLHMPGAGVGGHCIPVYPWFVISLAKKTNPRLIKTAREINDSMPHHIVELTIRGLNEVGKPLKGSNVLVLGLTFRGGVREFTKSPAIDVIKELKEWGARVFTYDPLCNEEDAKRFGAEWKEDFKDVDAIVIVTDHKEFKDLNLEEIAKQVRNRVIVDGRNILDPRKAEKLGFVYLRVGRVEGHHHHHH”, which “soluble on expression in E. coli” value is on record?
A: The value was “soluble”.

Q: With “MGSDKIHHHHHHMARLPLKQFLADNPKKVLVLDGGQGTELENRGIKVANPVWSTIPFISESFWSDESSANRKIVKEMFNDFLNAGAEILMTTTYQTSYKSVSENTPIRTLSEYNNLLNRIVDFSRNCIGEDKYLIGCIGPWGAHICREFTGDYGAEPENIDFYQYFKPQLENFNKNDKLDLIGFETIPNIHELKAILSWDESILSRPFYIGLSVHEHGVLRDGTTMEEIAQVIKDLGDKINPNFSFLGINCVSFNQSPDILESLHQALPNMALLAYPNSGEVYDTEKKIWLPNSDKLNSWDTVVKQYISSGARIIGGCCRTSPKDIQEISAAVKKYT” as the sequence, how does the “soluble on expression in E. coli” value read?
A: Its value is “not soluble”.

Q: Which “soluble on expression in E. coli” value does the source give for “MSLKHLWFEKGAYASKAARQYLNDHFNPLAVKKTAVIRHAALGDQVIVRPFLVEARKFFPNAEITLVTVSNYLYGTPSDLADKTVIMKSRDDSKQLSLRQKWQDYNQLEAQDIIFDVAGTNRSYWMTLLTKAKLKVGFPYKPFLCGTLYNLAVFRSDFQPEVECMLDMLKILGHNPSYPLDFAYPDNRQICDHAAPYIVYFSGASQLRKILTKPEMRAVIEQTIQQQPNVKHVFLEGKNEFEKGEYLQDLADNGSLTIQPCLPLDDLVTFIAKATLVIAPDTGIRNVAISTHTPTVGIFYATVPFRYTPLYEAHTIVMNANGEKPSTEQITSAIDTTLKMRLAAAKNTQEQEGHHHHHH” here?
A: Its value is “soluble”.

Q: Which “soluble on expression in E. coli” value does the source give for “MTQVLVRNGIQAVGDGLTSLIIVGKKSVLKNVTFEGKFKEVAQKFVTDGDSWNSMISRIPASGRHPLHYELAHLITVPDASSRGNTPTNAHSIYKELKPINYPEDTKNVHFVLFAEYPDVLSHVAAIARTFCKFSMKTSGIRELNVNIDVVCDKLTNEDAVFLTDLSESVRETARLIDTPANILTTDALVDEAVKVGNATGSKITVIRGEELLKAGFGGIYHVGKAGPTPPAFVVLSHEVPGSTEHIALVGKGVVYDTGGLQIKTKTGMPNMKRDMGGAAGMLEAYSALVKHGFSQTLHACLCIVENNVSPIANKPDDIIKMLSGKTVEINNTDAEGRLILADGVFYAKETLKATTIFDMATLTGAQAWLSGRLHGAAMTNDEQLENEIIKAGKASGDLVAPMLFAPDLFFGDLKSSIADMKNSNLGKMDGPPSAVAGLFIGAHIGFGEGLRWLHLDIAAPAEVGDRGTGYGPALFSTLLGKYTSVPMLKQ” here?
A: Its value is “soluble”.

Q: With “MEFIGDTRIVIINPLGAKKICRLTFEQIKVIYQEVKTHFENYRIIFTGLPQDLLTIPILEIETLPFDEFIYTVALTKYSDFVISVDTALVHIAAAYHKPTLAFYPNSRTPEYPSHLIWSPNHHKSIQIVSPTYTVKDIDTETLTNSVKRLSCIDKKLEHHHHHH” as the sequence, how does the “soluble on expression in E. coli” value read?
A: Its value is “soluble”.

Q: Which “soluble on expression in E. coli” value does the source give for “MPKVRTKDLIEQFQLELISGEEGIHRPIDTSDLSRPGIEMAGFFTYYPADRVQLLGKTELTFFDTLTSDQKQERMKALCTEETPCIIVTRNQDVPDELLQASRESGMPLLRSSQTTTRLSSRLTNYLEGKLAPTTAVHGVLVDIYGVGVLITGQSGVGKSETALELVKRGHRLVADDSVEIRQEDEDMLVGSSPDLIEHLLEIRGLGIINVMTLFGAGAVRNYKRITLVINLEIWDQKKNYDRLGLDEEKMKIIDTELTKITLPVRPGRNLAVIIEVAAMNFRLKRMGVNAAQQFSERLMSAIELGNQE” here?
A: The value was “not soluble”.

Q: For “AHHHHHHGSKAMEFVGYKKSGKTTCVENVAKVLKKEKGYRVAIAKSMHSNFDKEETDTWKFSRIADYVIVHAQDIDGLLFKAKDVNALFSMVSADILLIEGFKSITHVPKVICAKSEEEVRELNNGLAIAVSGVIANKGIKEIDGLPVINATKEPEKLAELVEKKGFMLPNIDCGLCGYNCAEMAKLIVKGEKTVKDCVVLSSTPKVTIKIDGQVLPLKDWVQELVEKTIKGMLSAMKGYREGRKIEIVIKE”, which “soluble on expression in E. coli” value is on record?
A: Its value is “soluble”.

Q: With “LSPLPRAYQWADGSAYLNHVELVRKARGAEVPASFYTDPLMYQGGSDAFLAPTADIPLRDEAWGLDFEGEVAVVTGDVPLGAPADAKYIRLLMLVNDVTLRGLIPPELAKGFGFFQSKPATAFSPVAVTPDELGDAWDGGKVHLPLLVDYNGAFYGKPDCGVEMQFSFPQLVAHVSKTRELVAGSIVGSGTISNKDRSVGSCCLAEQRMIETIEQGAPKTPFMKVGDTVRIEMRNAAGDSIFGAIEQTVVKHD” as the sequence, how does the “soluble on expression in E. coli” value read?
A: Its value is “not soluble”.

Q: Which “soluble on expression in E. coli” value does the source give for “MNISVFDLFSIGIGPSSSHTVGPMLAANAFLQLLEQKNLFDKTQRVKVELYGSLALTGKGHGTDKAILNGLENKAPETVDPASMIPRMHEILDSNLLNLAGKKEIPFHEATDFLFLQKELLPKHSNGMRFSAFDGNANLLIEQVYYSIGGGFITTEEDFDK” here?
A: The value was “not soluble”.

Q: For “MGSDKIHHHHHHMTPNIYQQLGLKKVINACGKMTILGVSSVAPEVMQATARAASAFVEIDALVEKTGELVSRYTGAEDSYITSCASAGIAIAVAAAITHGDRARVALMPDSSGMANEVVMLRGHNVDYGAPVTSAIRLGGGRIVEVGSSNLATRWQLESAINEKTAALLYVKSHHCVQKGMLSIDDFVQVAQANHLPLIVDAAAEEDLRGWVASGADMVIYSGAKAFNAPTSGFITGRKTWIAACKAQHQGIARAMKIGKENMVGLVYALENYHQGQTTVTAAQLQPVAEAISAIHGLYADIEQDEAGRAIWRIRVRVNASELGLNAQDVEAQLRGGEIAIYARKYQLHQGVFSLDPRTVAEGEMALIVARLREIAEHAAD”, which “soluble on expression in E. coli” value is on record?
A: Its value is “not soluble”.

Q: For “MIILIRYGPIDVTYCRMKRGFMYMVAIIDWYSRYIVGFELSNTLDKTFVIEAIQKAIKRYGKPEIMNSDQGSQFTSDDYINLLKNNGIKISMDGKGRALDNQRIERFFRSYKWEKLYLEECETVQQLRQITKEYVEHYNHRRPHQSLDYKTPAEYYFGGYDQLLAVV”, which “soluble on expression in E. coli” value is on record?
A: Its value is “not soluble”.

Q: For “MKTDRLLADTKTIRYEETDLASLISAPYHFRCGIYLICTQGEAVVSTGVQKYIFNEQTELIFLTGGLLQVLETSGDLQVKMLMFPKEAFLNAMLPIDTPYFNYTHEHPCYHHTADERSQKTWRQINLWMDMAQMLFTEPMPQFRGQQEHNFLQSLLMWLFNTIPEKLAVSKQYSRTQLLCHRFMQLIREYSMHEHQVAFYAEKLCISSRYLHKITVRHLDGKKPKQLIDEQLVAEIKVLLNEPRLSVTEIAEQLHFPDQSYLTHFFKKNTGISPKEFRAIKNLG”, which “soluble on expression in E. coli” value is on record?
A: The value was “not soluble”.

Q: Which “soluble on expression in E. coli” value does the source give for “LTSKLVQAGANVKVIMTESACRFVSPLTFQALSRHEVYTDTFKEQNPSVISHIDAADWADLIIVAPATANVIGKLANGIADDMLTTTLLAATAPVWIAPAMNVHMYDHPAVKRNISVLYQDGYCFIEPSEGYLACGYVGKGRLEEPENIVKLAEKHFAEETSAPLEGKHVVITAGPTREAIDPVRFFTNKSTGKMGYALAEAAVQLGARVILISGPVSLDQPKGLAEFIPVQSAADMREAVLSVYDASDIVIKTAAVADFTPKTVFDHKMKKQDGGMTLELKRTVDILKELGEKKKEQILVGFAAETQDIEHYARKKLAAKNLDLIVANDVKANGAGFGADTNIVTIFFKDGHKRELPIMSKLDVSFEILQEIAALSKQTGERS” here?
A: Its value is “not soluble”.

Q: For “MELLFLGTGAGIPAKARNVTSVALKLLEERRSVWLFDCGEATQHQMLHTTIKPRKIEKIFITHMAGDHVYGLPGLLGSRSFQGGEDELTVYGPKGIKAFIETSLAVTKTHLTYPLAIQEIEEGIVFEDDQFIVTAVSVIHGVEAFGYRVQEKDVPGSLKADVLKEMNIPPGPVYQKIKKGETVTLEDGRIINGNDFLEPPKKGRSVVFSGDTRVSDKLKELARDCDVMVHEATFAKEDRKLAYDYYHSTTEQAAVTAKEARAKQLILTHISARYQGDASLELQKEAVDVFPNSVAAYDFLEVNVPRGKLAAALEHHHHHH”, which “soluble on expression in E. coli” value is on record?
A: Its value is “soluble”.

Q: With “MNKFNEEYRKMEEDAQRRHQELNRQSLENAAEMKDSRRKILNKEFEGAILIKQVEHETKQVEKKRENLEKGHKKEMRNMSADFRKKKNEIEMEQLKLAIGNRVENHNQRKVEEQLRNEQERFLKKLLKYHTTTGANRDLFGEFQKVLKPFNEMIGELQDIKLRCITDGDADNGYIEYEVDYVGQLRRSVYTEIDEFREYIADEKNISKEIGIACAIYVKKLERIADCKELNLLCDQLQAAIEGKNGEIIKTCEIFIDKFTQKFESISNGSTSDFHRLRLKAPERDIPSSSTLTIEN” as the sequence, how does the “soluble on expression in E. coli” value read?
A: Its value is “not soluble”.
